In US20210380664A1 (AICURIS ANTI INFECTIVE CURES, published 2021):

Target: HCMV virus particles, strain TB40/E
Assay: cell-based or functional assay

GRHIYIYVPDPDVAFVPLGMTDYLVIVEDDDSAIIPCRTT [PDGFR-alpha derived 40mer peptide GT40]
EC50 of inhibition of infection of HFFs by peptide: 2000 nM
